Laboratory results taken from patent US20140087995A1 (published 2014).
Numbered stars: 1 amine (or outer) side, 2 acyl side, 3 side chain; on linkers, the order of the positions; unused ones are H or OH. Bridge positions count the residues as written; N and C are the ends. Side chains are listed from the residue outwards. Ends that are not written are not given here. * marks the point of attachment. C20 diacid = O=C(O)CCCCCCCCCCCCCCCCCCC(=O)*; γGlu = O=C(O)[C@H](CCC(=O)[*:2])N[*:1]; AEEA = NCCOCCOCC(=O)O

Legend:
[1] = target: T1, rat amylin receptor (rat calcitonin receptor + rat RAMP 3) (rat, UniProt P32214 25-516; Q9JJ73 23-147); assay: SPA competition vs 125I-rat amylin, membranes of BHK cells with rat calcitonin receptor + rat RAMP3 (Assay VI)
T1 construct: whole, on cells; Membranes prepared from transiently transfected BHK tk'ts 13 cells (Assay VI); also called rAmylin-R; rAmylin
T1 sequence (looked up) 1: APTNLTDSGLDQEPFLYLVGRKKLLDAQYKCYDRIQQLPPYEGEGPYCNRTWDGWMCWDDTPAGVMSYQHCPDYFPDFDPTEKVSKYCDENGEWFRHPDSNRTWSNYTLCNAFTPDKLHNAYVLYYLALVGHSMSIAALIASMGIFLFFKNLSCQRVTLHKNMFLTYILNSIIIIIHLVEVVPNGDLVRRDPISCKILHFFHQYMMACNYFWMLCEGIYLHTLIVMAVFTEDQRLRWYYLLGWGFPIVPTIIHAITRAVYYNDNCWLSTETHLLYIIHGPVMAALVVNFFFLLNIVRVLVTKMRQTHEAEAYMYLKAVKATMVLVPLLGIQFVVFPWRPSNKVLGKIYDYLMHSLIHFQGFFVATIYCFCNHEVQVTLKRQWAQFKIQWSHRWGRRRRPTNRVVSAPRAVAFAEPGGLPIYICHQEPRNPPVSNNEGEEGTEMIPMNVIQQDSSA
T1 sequence (looked up) 2: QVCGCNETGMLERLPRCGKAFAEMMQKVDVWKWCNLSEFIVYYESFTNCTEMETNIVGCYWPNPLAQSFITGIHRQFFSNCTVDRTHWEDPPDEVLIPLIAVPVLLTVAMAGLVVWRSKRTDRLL
Experimental: The binding assay was performed using scintillation proximity assay (SPA) beads (RPNQ0001) from PerkinElmer and cell membranes from the Amylin 3(a)/CRE-luc cells (as described in Assay (II)) were used. Membranes were prepared in the following way; the cells were rinsed with PBS and incubated with Versene for approximately 5 min before harvesting. The cells were flushed with PBS and the cell-suspension was centrifuged for 5 min at 1000 rpm. Cells were homogenized (ultrathurrax) in a buffer containing 20 mM Na-HEPES and 10 mM EDTA (pH 7.4) and centrifuged at 20.000 rpm for 15 min. The resulting pellet was resuspended, homogenized and centrifuged (20.000 rpm, 15 min) in a buffer containing 20 mM Na-HEPES and 0.1 mM EDTA (pH 7.4, buffer 2). The resulting pellet was resuspended in buffer 2 and protein concentration was measured (BCA protein Assay, Pierce). The homogenate was kept cold during the whole procedure. The membranes were kept at −80° C. until use. The assay was performed in a 384 well Optiplate (PerkinElmer) in a total volume of 40 ul. Membranes were mixed with SPA beads. Final concentration of membranes 35 ng/μL final and SPA beads was 0.05 mg/well. Test-compounds were dissolved in DMSO and further diluted in assay buffer (50 mM Hepes, pH 7.4, 1 mM CaCl2, 5 mM MgCl₂, 0.1% OA and 0.02% Tween20). […] The final mixture was incubated with shaking at 400 rpm for 120 min at 25° C. prior to centrifugation (1500 rpm, 10 min). Samples were analyzed on TopCounter™ (Packard). The IC₅₀ was calculated using (one site binding competition analysis) GraphPad Prism5 as a measure of receptor affinity.
Cells were grown in DMEM with 10% FBS and 1% Pen/Strep. Approximately 48 hours after transfection, the cells were harvested and membranes were prepared.

[2] = target: T2, human calcitonin receptor (human, UniProt P30988 25-474); assay: ratio of binding IC50s: human calcitonin receptor / human amylin receptor (reference)
T2 construct: whole, on cells; Membranes prepared from a stably transfected BHK cell line (Assay VII); also called hCTR; hCT
T2 sequence (looked up): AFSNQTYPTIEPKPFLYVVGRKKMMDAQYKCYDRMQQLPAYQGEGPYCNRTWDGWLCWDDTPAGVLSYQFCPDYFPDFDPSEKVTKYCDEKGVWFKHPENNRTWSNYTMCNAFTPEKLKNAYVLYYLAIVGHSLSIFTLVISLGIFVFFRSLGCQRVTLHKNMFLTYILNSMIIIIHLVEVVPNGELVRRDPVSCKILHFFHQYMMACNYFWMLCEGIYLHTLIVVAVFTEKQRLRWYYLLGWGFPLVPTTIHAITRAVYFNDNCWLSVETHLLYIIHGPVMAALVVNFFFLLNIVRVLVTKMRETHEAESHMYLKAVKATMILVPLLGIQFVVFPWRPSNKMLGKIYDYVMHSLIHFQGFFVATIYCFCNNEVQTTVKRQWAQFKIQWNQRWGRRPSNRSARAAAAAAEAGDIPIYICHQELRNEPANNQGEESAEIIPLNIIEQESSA
Experimental: The resulting pellet was resuspended, homogenized and centrifuged (20.000 rpm, 15 min) in a buffer containing 20 mM Na-HEPES and 0.1 mM EDTA (pH 7.4, buffer 2). The resulting pellet was resuspended in buffer 2 and protein concentration was measured (BCA protein Assay, Pierce). The homogenate was kept cold during the whole procedure. The membranes were kept at −80° C. until use. The assay was performed in a 384 well Optiplate (PerkinElmer) in a total volume of 40 ul. Membranes were mixed with SPA beads. Final concentration of membranes 35 ng/μL final and SPA beads was 0.05 mg/well. Test-compounds were dissolved in DMSO and further diluted in assay buffer (50 mM Hepes, pH 7.4, 1 mM CaCl2, 5 mM MgCl₂, 0.1% OA and 0.02% Tween20). […] The final mixture was incubated with shaking at 400 rpm for 120 min at 25° C. prior to centrifugation (1500 rpm, 10 min). Samples were analyzed on TopCounter™ (Packard). The IC₅₀ was calculated using (one site binding competition analysis) GraphPad Prism5 as a measure of receptor affinity.
Membranes were prepared in the following way; the cells were rinsed with PBS and incubated with Versene for approximately 5 min before harvesting. The cells were flushed with PBS and the cell-suspension was centrifuged for 5 min at 1000 rpm. Cells were homogenized (Ultrathurrax) in a buffer containing 20 mM Na-HEPES and 10 mM EDTA (pH 7.4) and centrifuged at 20.000 rpm for 15 min. The resulting pellet was resuspended, homogenized and centrifuged (20.000 rpm, 15 min) in a buffer containing 20 mM Na-HEPES and 0.1 mM EDTA (pH 7.4, buffer 2). The resulting pellet was resuspended in buffer 2 and protein concentration was measured (BCA protein Assay, Pierce). The homogenate was kept cold during the whole procedure. The membranes were kept at −80° C. until use. Assay was performed in a 384 well Optiplate (PerkinElmer) in a total volume of 40 ul. Membranes were mixed with SPA beads.

rat calcitonin receptor [3] = target: T3, rat calcitonin receptor (rat, UniProt P32214 25-516); assay: ratio of binding IC50s: rat calcitonin receptor / rat amylin receptor (reference)
T3 construct: whole, on cells; Membranes prepared from transiently transfected BHK tk'ts 13 cells (Assay VIII); also called rCTR; rCT
T3 sequence (looked up): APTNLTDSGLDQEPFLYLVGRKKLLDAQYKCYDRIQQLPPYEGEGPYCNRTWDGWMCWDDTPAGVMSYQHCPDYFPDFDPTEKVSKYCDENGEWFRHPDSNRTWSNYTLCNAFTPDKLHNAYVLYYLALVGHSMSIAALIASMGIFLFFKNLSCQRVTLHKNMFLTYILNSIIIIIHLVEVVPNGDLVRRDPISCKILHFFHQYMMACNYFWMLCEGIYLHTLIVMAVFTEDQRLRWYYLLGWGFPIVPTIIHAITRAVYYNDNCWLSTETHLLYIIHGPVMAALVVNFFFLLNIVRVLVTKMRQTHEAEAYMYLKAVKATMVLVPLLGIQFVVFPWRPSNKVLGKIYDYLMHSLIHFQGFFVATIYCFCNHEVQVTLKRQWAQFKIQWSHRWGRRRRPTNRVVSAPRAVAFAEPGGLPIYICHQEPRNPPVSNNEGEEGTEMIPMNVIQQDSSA

rat calcitonin receptor [4] = target: T3, rat calcitonin receptor; assay: SPA competition vs 125I-calcitonin, membranes of BHK cells with rat calcitonin receptor (Assay VIII)

Binder	IC50 [1] [nM]	Ratio hCT/hAmylin binding [2]	Ratio rCT/rAmylin binding (rat calcitonin receptor [3])	IC50 (rat calcitonin receptor [4]) [nM]
K([AEEA-γGlu-C20 diacid])CNTATCATQRLANFLRHSSPNFGAIPSSTNVGHNTY-NH2 (disulfide 2-7; N-terminus assumed; SMILES CC[C@H](C)[C@H](NC(=O)[C@H](C)NC(=O)CNC(=O)[C@H](Cc1ccccc1)NC(=O)[C@H](CC(N)=O)NC(=O)[C@@H]1CCCN1C(=O)[C@H](CO)NC(=O)[C@H](CO)NC(=O)[C@H](Cc1c[nH]cn1)NC(=O)[C@H](CCCNC(=N)N)NC(=O)[C@H](CC(C)C)NC(=O)[C@H](Cc1ccccc1)NC(=O)[C@H](CC(N)=O)NC(=O)[C@H](C)NC(=O)[C@H](CC(C)C)NC(=O)[C@H](CCCNC(=N)N)NC(=O)[C@H](CCC(N)=O)NC(=O)[C@@H](NC(=O)[C@H](C)NC(=O)[C@@H]1CSSC[C@H](NC(=O)[C@@H](N)CCCCNC(=O)COCCOCCNC(=O)CC[C@H](NC(=O)CCCCCCCCCCCCCCCCCCC(=O)O)C(=O)O)C(=O)N[C@@H](CC(N)=O)C(=O)N[C@@H]([C@@H](C)O)C(=O)N[C@@H](C)C(=O)N[C@@H]([C@@H](C)O)C(=O)N1)[C@@H](C)O)C(=O)N1CCC[C@H]1C(=O)N[C@@H](CO)C(=O)N[C@@H](CO)C(=O)N[C@H](C(=O)N[C@@H](CC(N)=O)C(=O)N[C@H](C(=O)NCC(=O)N[C@@H](Cc1c[nH]cn1)C(=O)N[C@@H](CC(N)=O)C(=O)N[C@H](C(=O)N[C@@H](Cc1ccc(O)cc1)C(N)=O)[C@@H](C)O)C(C)C)[C@@H](C)O, Analogue of human amylin; also called compound 76)	0.686	80	56.8	38.9
K([AEEA-γGlu-C20 diacid])CNTATCATQRLANFLRHSSPNFGAIPSPTPVGSNTY-NH2 (disulfide 2-7; N-terminus assumed; SMILES CC[C@H](C)[C@H](NC(=O)[C@H](C)NC(=O)CNC(=O)[C@H](Cc1ccccc1)NC(=O)[C@H](CC(N)=O)NC(=O)[C@@H]1CCCN1C(=O)[C@H](CO)NC(=O)[C@H](CO)NC(=O)[C@H](Cc1c[nH]cn1)NC(=O)[C@H](CCCNC(=N)N)NC(=O)[C@H](CC(C)C)NC(=O)[C@H](Cc1ccccc1)NC(=O)[C@H](CC(N)=O)NC(=O)[C@H](C)NC(=O)[C@H](CC(C)C)NC(=O)[C@H](CCCNC(=N)N)NC(=O)[C@H](CCC(N)=O)NC(=O)[C@@H](NC(=O)[C@H](C)NC(=O)[C@@H]1CSSC[C@H](NC(=O)[C@@H](N)CCCCNC(=O)COCCOCCNC(=O)CC[C@H](NC(=O)CCCCCCCCCCCCCCCCCCC(=O)O)C(=O)O)C(=O)N[C@@H](CC(N)=O)C(=O)N[C@@H]([C@@H](C)O)C(=O)N[C@@H](C)C(=O)N[C@@H]([C@@H](C)O)C(=O)N1)[C@@H](C)O)C(=O)N1CCC[C@H]1C(=O)N[C@@H](CO)C(=O)N1CCC[C@H]1C(=O)N[C@H](C(=O)N1CCC[C@H]1C(=O)N[C@H](C(=O)NCC(=O)N[C@@H](CO)C(=O)N[C@@H](CC(N)=O)C(=O)N[C@H](C(=O)N[C@@H](Cc1ccc(O)cc1)C(N)=O)[C@@H](C)O)C(C)C)[C@@H](C)O, Analogue of human amylin; also called compound 54)	0.049	146	179	8.79
K([AEEA-γGlu-C20 diacid])CNTATCATQRLANFLRHSSPNFGAIPPSTNVGPNTY-NH2 (disulfide 2-7; N-terminus assumed; SMILES CC[C@H](C)[C@H](NC(=O)[C@H](C)NC(=O)CNC(=O)[C@H](Cc1ccccc1)NC(=O)[C@H](CC(N)=O)NC(=O)[C@@H]1CCCN1C(=O)[C@H](CO)NC(=O)[C@H](CO)NC(=O)[C@H](Cc1c[nH]cn1)NC(=O)[C@H](CCCNC(=N)N)NC(=O)[C@H](CC(C)C)NC(=O)[C@H](Cc1ccccc1)NC(=O)[C@H](CC(N)=O)NC(=O)[C@H](C)NC(=O)[C@H](CC(C)C)NC(=O)[C@H](CCCNC(=N)N)NC(=O)[C@H](CCC(N)=O)NC(=O)[C@@H](NC(=O)[C@H](C)NC(=O)[C@@H]1CSSC[C@H](NC(=O)[C@@H](N)CCCCNC(=O)COCCOCCNC(=O)CC[C@H](NC(=O)CCCCCCCCCCCCCCCCCCC(=O)O)C(=O)O)C(=O)N[C@@H](CC(N)=O)C(=O)N[C@@H]([C@@H](C)O)C(=O)N[C@@H](C)C(=O)N[C@@H]([C@@H](C)O)C(=O)N1)[C@@H](C)O)C(=O)N1CCC[C@H]1C(=O)N1CCC[C@H]1C(=O)N[C@@H](CO)C(=O)N[C@H](C(=O)N[C@@H](CC(N)=O)C(=O)N[C@H](C(=O)NCC(=O)N1CCC[C@H]1C(=O)N[C@@H](CC(N)=O)C(=O)N[C@H](C(=O)N[C@@H](Cc1ccc(O)cc1)C(N)=O)[C@@H](C)O)C(C)C)[C@@H](C)O, Analogue of human amylin; also called compound 55)	0.081	51.8	77.2	6.25
K([AEEA-γGlu-C20 diacid])CNTATCATQRLANFLRHSSPNFGAIPPSTPVGSNTY-NH2 (disulfide 2-7, Analogue of human amylin; also called compound 53)	0.084	104	130	10.9
